Molecular target: chimera H (HCV NS3 to NS5B-P6' fused to tTA, NS3 active site mutant S1165A, unmodified NS5A/5B junction) (Hepatitis C virus 1b (human serum isolate))
Assay: cell-based or functional assay

## chimera I (HCV NS3 to NS5B-P6' fused to tTA, NS5A/5B cleavage site P1-P1' mutated to R-P; source of active NS3 protease)
  luciferase activity, triple transfection of chimera H, I and the pUHC13-3 reporter into 293 cells: 2e+06 cps

Source: patent publication US20030162168A1
